{"source": "patent US20170107258", "key": {"[1]": {"tested_on": "T1, cyclic peptide P3, c(RlSKDK)", "T1 sequence": "RLSKDK"}, "[2]": {"tested_on": "T2, cyclic peptide P1, c(RLsKDK), cyclo(Arg-Leu-{β-Ser}-Lys-Asp-Lys)", "T2 sequence": "RLSKDK"}, "[3]": {"tested_on": "T3, cyclic peptide P2, c(rLSKDK)", "T3 sequence": "RLSKDK"}}, "data": [{"substance": "purified recombinant ADAM8", "values": [{"measurement": "ADAM8 proteolytic activity, fluorogenic CD23 peptide, peptides at 100 nM", "setting": "[1]", "value": "Cyclic peptides P2 and P3 showed inhibition of ADAM8 proteolytic activity"}, {"measurement": "ADAM8 proteolytic activity, fluorogenic CD23 peptide, peptides at 100 nM", "setting": "[2]", "value": "cyclic peptide P1 showed the most marked inhibition"}, {"measurement": "ADAM8 proteolytic activity, fluorogenic CD23 peptide, peptides at 100 nM", "setting": "[3]", "value": "Cyclic peptides P2 and P3 showed inhibition of ADAM8 proteolytic activity"}]}]}
